Test results: the Human Domainome abundance scans (Beltran et al. 2025)
± gives the uncertainty stated by the source.

B1: Transitional endoplasmic reticulum ATPase, residues 26 to 106; numbered along this chain, P55072 (parent)
chain: LIVDEAINEDNSVVSLSQPKMDELQLFRGDTVLLKGKKRREAVCIVLSDDTCSDEKIRMNRVVRNNLRVRLGDVISIQPCP

Variants of: B1
Experiment: abundance fitness (aPCA) (normalised: wild type 0, dead -1); higher = more abundant; growth selection in yeast, the domain comes from the species named
Conditions: Homo sapiens

Variant	abundance fitness
N60Y	-0.811 ± 0.39
N60C	-0.182 ± 0.16
N60P	-0.046 ± 0.079
N60T	-0.019 ± 0.08
I77S	-0.914 ± 0.19
I77R	-0.91 ± 0.12
V14H	-0.956 ± 0.2
V14A	-0.341 ± 0.048
V14S	-0.801 ± 0.068
V14P	-0.977 ± 0.19
V14Q	-1.02 ± 0.26
V13D	-0.103 ± 0.079
V13G	-0.06 ± 0.03
V13Y	0.044 ± 0.084
V13M	-0.143 ± 0.083
V13Q	-0.112 ± 0.065
V13E	-0.127 ± 0.066
E9Y	-0.129 ± 0.13
E9P	0.048 ± 0.079
E9Q	-0.127 ± 0.12
E9D	0.041 ± 0.091
K56H	-0.183 ± 0.26
K56V	-0.021 ± 0.063
K56P	-0.971 ± 0.2

Variant	abundance fitness
K56C	0.027 ± 0.085
K56W	-0.35 ± 0.055
K56L	-0.047 ± 0.055
E5W	-0.051 ± 0.044
E5N	-0.018 ± 0.12
E5D	0.003 ± 0.11
E5G	-0.032 ± 0.051
D4I	0.052 ± 0.12
D4H	-0.04 ± 0.26
D4L	-0.203 ± 0.047
D4A	-0.009 ± 0.055
D4W	-0.091 ± 0.08
R28H	0.226 ± 0.17
R28G	-0.027 ± 0.052
R28F	-0.401 ± 0.31
R28L	0.012 ± 0.059
R28I	-0.061 ± 0.1
V63N	-0.276 ± 0.17
V63T	0.072 ± 0.12
V63R	-0.445 ± 0.066
N11T	-0.028 ± 0.066
N11S	0.039 ± 0.051
N11M	-0.029 ± 0.072
N11G	-0.067 ± 0.04

Variant	abundance fitness
N11K	-0.084 ± 0.12
I7T	-0.099 ± 0.079
I7H	-0.15 ± 0.13
I7F	0.009 ± 0.099
I7D	0.032 ± 0.12
I7N	-0.193 ± 0.3
N66T	0.007 ± 0.11
D50A	-0.023 ± 0.056
D50R	-0.057 ± 0.054
D50F	-0.214 ± 0.13
D50G	0.031 ± 0.046
D50K	-0.105 ± 0.18
D50P	-0.105 ± 0.11
Q78T	-0.003 ± 0.077
Q78G	-0.069 ± 0.048
Q78L	-0.01 ± 0.06
V62F	-0.023 ± 0.12
V62R	-0.013 ± 0.056
V62W	-0.028 ± 0.063
D54Q	-0.279 ± 0.1
D54P	-0.116 ± 0.072
D54F	-0.112 ± 0.099
D54A	-0.076 ± 0.058
D54C	-0.089 ± 0.11

Variant	abundance fitness
D54M	0.006 ± 0.12
S76P	-0.467 ± 0.16
S76V	0.023 ± 0.064
S76H	0 ± 0.17
L1I	0.128 ± 0.14
L1S	-0.264 ± 0.075
L1Y	-0.582 ± 0.26
L16Q	-0.584 ± 0.1
L16T	-0.793 ± 0.14
L24A	-0.553 ± 0.054
L24M	-0.249 ± 0.076
L24V	-0.429 ± 0.041
D22R	-0.015 ± 0.04
D22M	-0.06 ± 0.066
D22C	-0.083 ± 0.051
D22L	-0.008 ± 0.048
R64S	-0.303 ± 0.072
R64C	-0.227 ± 0.12
R64V	-0.321 ± 0.065
L67E	-0.853 ± 0.15
L67R	-0.956 ± 0.12
L67A	-0.601 ± 0.074
L67C	-0.175 ± 0.084
P19G	0.063 ± 0.045

Variant	abundance fitness
P19H	-0.003 ± 0.15
P19W	-0.016 ± 0.08
A6C	-0.048 ± 0.077
A6E	-0.107 ± 0.059
A6V	-0.133 ± 0.037
A6Q	0.007 ± 0.073
V74F	0.042 ± 0.078
V74S	-0.048 ± 0.064
V74I	-0.115 ± 0.091
V74Y	-0.052 ± 0.11
V74W	-0.087 ± 0.091
V74G	-0.085 ± 0.052
V74L	-0.117 ± 0.064
E41N	-0.383 ± 0.2
E41Y	-0.14 ± 0.15
E41T	-0.123 ± 0.098
V3W	-0.952 ± 0.17
V3T	-0.432 ± 0.097
V3M	-0.194 ± 0.093
V3R	-0.992 ± 0.15
I57W	-0.848 ± 0.18
I57Q	-0.816 ± 0.18
I57S	-0.861 ± 0.15
I57M	-0.198 ± 0.084

Variant	abundance fitness
S12K	-0.035 ± 0.065
S12R	-0.038 ± 0.04
S12I	-0.166 ± 0.11
S12F	-0.036 ± 0.095
S12C	-0.056 ± 0.07
S12N	-0.086 ± 0.083
S12E	0.039 ± 0.062
E23K	-0.187 ± 0.11
E23I	-0.126 ± 0.18
E23D	-0.23 ± 0.12
E23W	-0.338 ± 0.12
E55W	-0.148 ± 0.058
E55T	-0.03 ± 0.12
E55P	-0.075 ± 0.083
D73F	-0.861 ± 0.18
D73N	-0.102 ± 0.22
D73P	-0.915 ± 0.19
D73H	-0.135 ± 0.14
D73R	-0.715 ± 0.084
D73S	-0.012 ± 0.07
A42F	0.037 ± 0.095
A42G	-0.179 ± 0.049
A42P	-0.825 ± 0.15
R68E	0.047 ± 0.084

Variant	abundance fitness
R68L	-0.033 ± 0.057
R68Q	-0.119 ± 0.1
R68T	-0.14 ± 0.09
R68D	-0.064 ± 0.12
R68C	-0.114 ± 0.14
R68I	-0.588 ± 0.21
P81H	-0.261 ± 0.1
P81N	0.073 ± 0.17
P81G	-0.451 ± 0.22
P81V	-0.153 ± 0.14
P81T	-0.013 ± 0.12
F27D	0.069 ± 0.1
F27N	-0.022 ± 0.12
F27P	-0.238 ± 0.084
F27G	0.016 ± 0.05
F27T	0.127 ± 0.06
D10C	-0.165 ± 0.099
D10S	-0.14 ± 0.061
D10R	-0.158 ± 0.058
D10Y	-0.096 ± 0.12
V46T	-0.147 ± 0.085
L71A	0.114 ± 0.066
L71C	-0.112 ± 0.11
L71T	0.083 ± 0.097

Variant	abundance fitness
L71G	0.009 ± 0.053
L71F	-0.184 ± 0.25
D49W	-0.923 ± 0.14
D49H	-0.251 ± 0.19
Q18F	-0.191 ± 0.074
Q18C	-0.074 ± 0.067
Q18Y	-0.23 ± 0.15
Q18M	0.249 ± 0.13
Q18T	-0.148 ± 0.096
Q18H	0.036 ± 0.17
Q25R	-0.081 ± 0.053
Q25Y	-0.485 ± 0.14
Q25D	0.048 ± 0.094
Q25E	-0.156 ± 0.081
Q25K	-0.013 ± 0.076
Q25N	0.038 ± 0.098
Q25H	-0.168 ± 0.15
S48F	-0.342 ± 0.17
S48I	0.031 ± 0.15
S48A	0.065 ± 0.065
S48M	-0.05 ± 0.094
S48C	0.07 ± 0.068
S48R	-0.015 ± 0.051
S48Q	-0.106 ± 0.1

Variant	abundance fitness
K35E	-0.116 ± 0.16
K35G	-0.088 ± 0.071
K35S	0.031 ± 0.074
K35Q	0.078 ± 0.088
K35A	-0.096 ± 0.066
K35C	0.04 ± 0.18
K35Y	-0.229 ± 0.21
K35L	-0.058 ± 0.086
K35N	0.032 ± 0.16
R61N	-0.091 ± 0.15
R61V	-0.005 ± 0.059
R61Y	-0.059 ± 0.21
R61G	-0.025 ± 0.061
G29L	-0.209 ± 0.061
G29Q	-0.104 ± 0.049
G29A	-0.203 ± 0.06
G29P	-1.06 ± 0.28
G29T	-0.391 ± 0.092
G29F	-0.157 ± 0.098
V69K	-0.514 ± 0.18
S15Q	0.082 ± 0.053
S15G	0.034 ± 0.032
S15P	-0.591 ± 0.097
S15H	-0.039 ± 0.09

Variant	abundance fitness
S15V	0.07 ± 0.037
S15W	-0.091 ± 0.092
S15N	0.08 ± 0.1
I2D	-0.806 ± 0.17
I2Q	-0.164 ± 0.097
I2L	-0.115 ± 0.055
I2T	0.024 ± 0.083
I2N	-0.059 ± 0.14
I2C	-0.162 ± 0.078
S17A	-0.174 ± 0.052
S17M	-0.995 ± 0.15
S17V	-1.03 ± 0.26
S17G	-0.153 ± 0.043
S17D	-1.01 ± 0.34
S17K	-0.361 ± 0.097
S17I	-0.79 ± 0.17
V43M	0.098 ± 0.14
V43R	0.07 ± 0.053
V43G	-0.289 ± 0.06
S53N	0.044 ± 0.15
S53H	-0.102 ± 0.12
S53I	-0.204 ± 0.13
S53Q	0.033 ± 0.11
S53T	-0.019 ± 0.072

Variant	abundance fitness
V32P	-1.09 ± 0.28
M59P	-1.12 ± 0.32
M59K	-1.03 ± 0.21
I45K	-0.002 ± 0.13
I45Y	-0.029 ± 0.11
I45P	-0.157 ± 0.12
I45R	0.054 ± 0.055
L34R	-0.963 ± 0.17
L34S	-0.757 ± 0.12
N8H	-0.042 ± 0.095
N8Y	0.006 ± 0.13
N8P	-0.096 ± 0.061
K20C	-0.096 ± 0.11
K20W	-0.391 ± 0.14
K20T	-0.08 ± 0.071
K20P	-1.19 ± 0.36
R40C	-0.071 ± 0.12
R40L	-0.033 ± 0.056
R40Y	0.073 ± 0.17
T51D	0.026 ± 0.094
T51S	-0.052 ± 0.054
T51L	-0.117 ± 0.063
T51Y	-0.277 ± 0.12
T51R	-0.086 ± 0.062

Variant	abundance fitness
T51I	-0.19 ± 0.11
R70E	0.106 ± 0.092
R70Y	0.005 ± 0.15
R70L	0.037 ± 0.06
L47E	0.055 ± 0.09
L47H	0.126 ± 0.12
L47M	0.082 ± 0.095
L47C	-0.05 ± 0.087
I75V	-0.039 ± 0.069
I75F	-0.859 ± 0.15
I75C	-0.265 ± 0.12
C52W	-0.728 ± 0.11
C52L	0.018 ± 0.059
C52K	-0.334 ± 0.14
C52T	-0.027 ± 0.071
C52V	-0.062 ± 0.054
C52M	-0.016 ± 0.092
C52R	-0.192 ± 0.059
G72L	-0.42 ± 0.072
G72E	-0.23 ± 0.088
G72S	-0.278 ± 0.082
G72T	-0.037 ± 0.1
L33T	-0.03 ± 0.088
L33S	-0.122 ± 0.056

Variant	abundance fitness
L33R	-0.068 ± 0.046
L33E	-0.19 ± 0.081
T31D	-0.27 ± 0.1
T31H	-0.048 ± 0.13
K37G	-0.05 ± 0.06
K37T	-0.072 ± 0.21
K37N	-0.143 ± 0.32
P79W	-0.304 ± 0.093
P79S	-0.016 ± 0.069
P79A	0.015 ± 0.063
P79R	-0.106 ± 0.062
N65M	-0.054 ± 0.1
N65D	0.017 ± 0.11
N65E	-0.02 ± 0.17
M21S	-1.03 ± 0.16
M21P	-0.902 ± 0.25
M21E	-0.731 ± 0.31
C80F	-0.067 ± 0.054
C80K	-0.505 ± 0.49
C80D	-0.064 ± 0.072
C80N	0.141 ± 0.089
C80Y	-0.109 ± 0.059
G36S	-0.026 ± 0.07
G36A	-0.041 ± 0.036

Variant	abundance fitness
G36Q	-0.688 ± 0.18
G36V	-0.218 ± 0.059
K38W	-0.011 ± 0.14
K38G	0.025 ± 0.067
K38H	-0.05 ± 0.18
K38D	-0.11 ± 0.15
K38S	-0.097 ± 0.092
K38V	-0.153 ± 0.067
R58Y	-0.093 ± 0.4
R58S	-0.253 ± 0.062
R58F	-0.216 ± 0.19
R58M	-0.068 ± 0.095
L26I	-0.078 ± 0.13
C44M	0.085 ± 0.077
C44A	-0.017 ± 0.062
C44K	0.057 ± 0.075
D30Q	0.103 ± 0.1
D30W	-0.286 ± 0.079
R39E	0.056 ± 0.073
R39P	-0.079 ± 0.096
R39C	0.034 ± 0.13
R39D	0.008 ± 0.12
